Assay results as given in patent US20040067882A1 (published 2004).

Biological target: the molecule itself
Assay: self-association, non-reducing western blot

B1: CG57094-02 purified protein (angiopoietin-related protein, ARP, mature region; CHO-K1 stable cell expression, plasmid 1614) (ligand)
chain: GPVQSKSPRFASWDEMNVLAHGLLQLGQGLREHAERTRSQLSALERRLSACGSACQGTEGSTDLPLAPESRVDPEVLHSLQTQLKAQNSRIQQLFHKVAQQQRHLEKQHLRIQHLQSQFGLLDHKHLDHEVAKPARRKRLPEMAQPVDPAHNVSRLHRLPRDCQELFQVGERQSGLFEIQPQGSPPFLVNCKMTSDGGWTVIQRRHDGSVDFNRPWEAYKAGFGDPHGEFWLGLEKVHSITGDRNSRLAVQLRDWDGNAELLQFSVHLGGEDTAYSLQLTAPVAGQLGATTVPPSGLSVPFSTWDQDHDLRRDKNCAKSLSGGWWFGTCSHSNLNGQYFRSIPQQRQKLKKGIFWKTWRGRYYPLQATTMLIQPMAAEAAS
notes: also called NOV25s; CG57094 variant 02; not shown: C-terminal V5 and His tags from the pEE14.4 Sec vector
B1: binds.
